The values that follow come from publication PMC10901769, “An anti-CRISPR that represses its own transcription while blocking Cas9-target DNA binding”.

The stoichiometry N is the number of molecules, sites or subunits per partner or assembly. What is called Kd is the equilibrium constant for the complex coming apart.

The target in data set [1] is full-length AcrIIA15 (Staphylococcus (identified from Staphylococcus genomes)). Briefly: SEC; dimerization state of wild-type or mutated AcrIIA15; Superdex 75, 20 mM Tris-HCl pH 7.5, 0.5 M NaCl. A general note: SEC sorts molecules by how far they enter the pores of the column.
For data set [2] the target is unchanged. Briefly: cryo-EM structure; SaCas9-sgRNA-AcrIIA15-IR1 quaternary complex, mixed at 1:1.1:0.9:0.6, purified by SEC in 20 mM Tris pH 7.5, 0.1 M NaCl; 3.82 Å.
Data set [3] has the same target. Briefly: crystal structure; free full-length AcrIIA15; 2.34 Å.
Data set [4] has the same target. The experiment in a line: crystal structure; AcrIIA15 (full-length or NTD) with IR1 promoter DNA, mixed at 2:1.1 in 20 mM Tris pH 7.5, 100 mM NaCl; 3.15 Å and 3.10 Å.
The target of data set [5] is full-length AcrIIA15 R2A mutant (Staphylococcus (identified from Staphylococcus genomes)). Briefly: SEC; dimerization state of wild-type or mutated AcrIIA15; Superdex 75, 20 mM Tris-HCl pH 7.5, 0.5 M NaCl.
In data set [6] the target is N-terminal domain of AcrIIA15 (AcrIIA15^NTD) (Staphylococcus (identified from Staphylococcus genomes)). Briefly: crystal structure; AcrIIA15 (full-length or NTD) with IR1 promoter DNA, mixed at 2:1.1 in 20 mM Tris pH 7.5, 100 mM NaCl; 3.15 Å and 3.10 Å.
For data set [7], the target named is T1, AcrIIA15 full-length (UniProt PDB:8JG9_3 1-171).
T1 sequence: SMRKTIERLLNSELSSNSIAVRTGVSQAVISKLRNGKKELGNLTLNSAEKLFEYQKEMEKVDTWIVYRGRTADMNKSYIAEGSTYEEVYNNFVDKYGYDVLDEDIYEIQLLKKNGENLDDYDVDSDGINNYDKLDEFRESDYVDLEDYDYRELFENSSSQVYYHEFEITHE
The experiment in a line: EMSA; Promoter EMSA: 20 mM Tris-HCl pH 7.5, 300 mM NaCl, on ice/4 C, 30 min; SaCas9 EMSA: 20 mM Tris pH 7.5, 200 mM NaCl, 10 mM EDTA, RT; SPR: 10 mM Na2HPO4, 2 mM KH2PO4, 0.3 M NaCl; SEC: 20 mM Tris pH 7.5, 300 mM NaCl. The note with it: protein: recombinant; tags: C-terminal His6, or His6-Sumo removed by Ulp1; chain copies: 2; blunt.

Data set [8] has as its target T1, AcrIIA15 full-length. Briefly: SPR; Promoter EMSA: 20 mM Tris-HCl pH 7.5, 300 mM NaCl, on ice/4 C, 30 min; SaCas9 EMSA: 20 mM Tris pH 7.5, 200 mM NaCl, 10 mM EDTA, RT; SPR: 10 mM Na2HPO4, 2 mM KH2PO4, 0.3 M NaCl; SEC: 20 mM Tris pH 7.5, 300 mM NaCl. The note with it: protein: recombinant; tags: C-terminal His6, or His6-Sumo removed by Ulp1; chain copies: 2; blunt.

The target in a further data set is T2, AcrIIA15 K37A (UniProt PDB:8JG9_3 1-171, K38A).
T2 sequence: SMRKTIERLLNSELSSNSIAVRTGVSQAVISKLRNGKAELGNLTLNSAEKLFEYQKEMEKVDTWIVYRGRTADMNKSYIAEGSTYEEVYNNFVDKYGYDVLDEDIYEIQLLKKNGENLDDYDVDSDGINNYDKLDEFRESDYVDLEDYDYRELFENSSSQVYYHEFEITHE
The experiment in a line: EMSA; Promoter EMSA: 20 mM Tris-HCl pH 7.5, 300 mM NaCl, on ice/4 C, 30 min; SaCas9 EMSA: 20 mM Tris pH 7.5, 200 mM NaCl, 10 mM EDTA, RT; SPR: 10 mM Na2HPO4, 2 mM KH2PO4, 0.3 M NaCl; SEC: 20 mM Tris pH 7.5, 300 mM NaCl. The note with it: protein: recombinant; tags: C-terminal His6; chain copies: 2; label: 5'-Cy3 on strand 1; blunt.

The next data set addresses T3, AcrIIA15 K31A (UniProt PDB:8JG9_3 1-171, K32A).
T3 sequence: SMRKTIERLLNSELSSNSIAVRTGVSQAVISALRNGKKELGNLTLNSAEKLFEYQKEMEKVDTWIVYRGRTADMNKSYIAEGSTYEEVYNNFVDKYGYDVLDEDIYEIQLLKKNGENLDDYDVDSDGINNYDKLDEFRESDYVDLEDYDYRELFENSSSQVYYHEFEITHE
The description is as above. The note with it: protein: recombinant; tags: C-terminal His6; chain copies: 2; label: 5'-Cy3 on strand 1; blunt.

The target of another data set is T4, AcrIIA15 R2A/L44A (UniProt PDB:8JG9_3 1-171, R3A;L45A).
T4 sequence: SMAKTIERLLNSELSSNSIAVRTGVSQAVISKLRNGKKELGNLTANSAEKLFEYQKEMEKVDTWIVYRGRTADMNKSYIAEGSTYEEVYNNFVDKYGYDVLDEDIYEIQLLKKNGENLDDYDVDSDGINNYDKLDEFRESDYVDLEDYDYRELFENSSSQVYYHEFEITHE
The description is as above. The note with it: protein: recombinant; tags: C-terminal His6; label: 5'-Cy3 on strand 1; blunt.

For another data set, the target named is T5, AcrIIA15 L44A (UniProt PDB:8JG9_3 1-171, L45A).
T5 sequence: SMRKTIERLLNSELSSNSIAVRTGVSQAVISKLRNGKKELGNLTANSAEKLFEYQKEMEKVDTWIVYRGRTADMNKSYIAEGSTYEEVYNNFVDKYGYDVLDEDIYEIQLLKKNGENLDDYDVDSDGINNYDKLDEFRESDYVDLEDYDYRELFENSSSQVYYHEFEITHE
Described as above. The note with it: protein: recombinant; tags: C-terminal His6; label: 5'-Cy3 on strand 1; blunt.

Data set [9] concerns the target T1, AcrIIA15 full-length. Briefly: crystal structure; Promoter EMSA: 20 mM Tris-HCl pH 7.5, 300 mM NaCl, on ice/4 C, 30 min; SaCas9 EMSA: 20 mM Tris pH 7.5, 200 mM NaCl, 10 mM EDTA, RT; SPR: 10 mM Na2HPO4, 2 mM KH2PO4, 0.3 M NaCl; SEC: 20 mM Tris pH 7.5, 300 mM NaCl. The note with it: protein: recombinant; tags: C-terminal His6, or His6-Sumo removed by Ulp1; chain copies: 2; 5' overhang 1 nt on both strands. For orientation: Mobility shift assays separate free from complexed probe on a gel.

The target in the next data set is T6, AcrIIA15 NTD (UniProt PDB:8JFR_1 1-63).
T6 sequence: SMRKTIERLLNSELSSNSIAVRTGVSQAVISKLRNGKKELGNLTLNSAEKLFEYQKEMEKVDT
The description is as above. The note with it: protein: recombinant; tags: C-His6 or His6-Sumo (removed); chain copies: 2; 5' overhang 1 nt on both strands.

For data set [10], the target named is T7, SaCas9;AcrIIA15 full-length (Staphylococcus aureus;, UniProt J7RUA5;PDB:8JG9_3 1-1053;1-171, |).
T7 sequence 1: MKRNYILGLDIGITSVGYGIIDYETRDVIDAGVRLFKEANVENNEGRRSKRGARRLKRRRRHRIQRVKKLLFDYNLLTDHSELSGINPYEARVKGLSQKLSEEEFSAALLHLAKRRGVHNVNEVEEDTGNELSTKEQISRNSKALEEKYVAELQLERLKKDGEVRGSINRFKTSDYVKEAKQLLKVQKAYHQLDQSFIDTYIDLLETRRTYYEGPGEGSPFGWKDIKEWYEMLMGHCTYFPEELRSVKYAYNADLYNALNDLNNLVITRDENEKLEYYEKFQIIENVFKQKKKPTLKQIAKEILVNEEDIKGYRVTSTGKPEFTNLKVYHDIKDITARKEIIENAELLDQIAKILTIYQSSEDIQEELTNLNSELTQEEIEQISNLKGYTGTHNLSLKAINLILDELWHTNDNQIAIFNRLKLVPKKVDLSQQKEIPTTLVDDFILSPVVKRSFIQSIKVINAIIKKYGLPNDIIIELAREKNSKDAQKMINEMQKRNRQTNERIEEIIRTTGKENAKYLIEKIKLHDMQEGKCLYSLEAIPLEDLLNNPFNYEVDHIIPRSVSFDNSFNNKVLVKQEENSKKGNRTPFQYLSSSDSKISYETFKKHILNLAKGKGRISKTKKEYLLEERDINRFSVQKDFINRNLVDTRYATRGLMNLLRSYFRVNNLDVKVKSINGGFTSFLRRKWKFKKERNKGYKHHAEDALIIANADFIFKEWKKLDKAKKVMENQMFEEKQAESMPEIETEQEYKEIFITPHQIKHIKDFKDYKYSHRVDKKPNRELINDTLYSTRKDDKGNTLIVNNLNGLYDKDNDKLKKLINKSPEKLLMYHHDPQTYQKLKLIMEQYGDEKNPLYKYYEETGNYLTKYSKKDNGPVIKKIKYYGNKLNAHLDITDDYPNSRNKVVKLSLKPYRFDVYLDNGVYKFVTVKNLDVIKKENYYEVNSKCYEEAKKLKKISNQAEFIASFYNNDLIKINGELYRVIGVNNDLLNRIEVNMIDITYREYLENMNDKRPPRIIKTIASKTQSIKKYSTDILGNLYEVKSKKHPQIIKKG
T7 sequence 2: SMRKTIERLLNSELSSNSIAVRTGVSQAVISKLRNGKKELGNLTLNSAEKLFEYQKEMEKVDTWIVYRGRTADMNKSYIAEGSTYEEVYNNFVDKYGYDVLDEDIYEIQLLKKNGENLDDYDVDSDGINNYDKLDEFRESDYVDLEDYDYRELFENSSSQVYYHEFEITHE
The experiment in a line: cryo-EM; with sgRNA; AcrIIA15 dimer, two SaCas9-sgRNA; Promoter EMSA: 20 mM Tris-HCl pH 7.5, 300 mM NaCl, on ice/4 C, 30 min; SaCas9 EMSA: 20 mM Tris pH 7.5, 200 mM NaCl, 10 mM EDTA, RT; SPR: 10 mM Na2HPO4, 2 mM KH2PO4, 0.3 M NaCl; SEC: 20 mM Tris pH 7.5, 300 mM NaCl. The note with it: protein: recombinant;recombinant; tags: His6-Sumo removed by Ulp1;C-terminal His6, or His6-Sumo removed by Ulp1; chain copies: 2;2; blunt.

As for full-length AcrIIA15 (natural protein), the stoichiometry N in data set [1], in data set [2], in [3] and in data set [4] was 2 each time.
As for “full-length AcrIIA15 R2A mutant (natural protein)”, the stoichiometry N in data set [5] was found to be 2.
Turning to “N-terminal domain of AcrIIA15 (AcrIIA15^NTD) (domain or fragment)”, the stoichiometry N in data set [6] came to 2.

B1: IR1 mutant in four base pairs (dsDNA)
DNA 1: ATAATTGTTACAAATGTAACAGAAAA
DNA 2: TTTTCTGTTACATTTGTAACAATTAT
With B1, the binding result with AcrIIA15 full-length [7] is recorded as “no binding”.

B2: IR2 (dsDNA)
DNA 1: TGACTTATGACGAACGTCATAATATA
DNA 2: TATATTATGACGTTCGTCATAAGTCA
Turning to B2, the Kd in the data set with AcrIIA15 full-length [8] came to 1.8 ± 0.66 nM.

B3: Cy3-IR1 (dsDNA)
DNA 1: ATAATTATGACAAATGTCATAGAAAA
DNA 2: TTTTCTATGACATTTGTCATAATTAT
Regarding B3, the binding result in the data set with AcrIIA15 K37A, in the data set with AcrIIA15 K31A, with AcrIIA15 R2A/L44A and with AcrIIA15 L44A was “no binding” each time.

B4: IR1'' (dsDNA)
DNA 1: ATTATGACAAATGTCATAG
DNA 2: TCTATGACATTTGTCATAA
Consider B4, for which the binding result with AcrIIA15 full-length [9] and in the data set with AcrIIA15 NTD was “binds” each time.

B5: IR1 (dsDNA)
DNA 1: ATAATTATGACAAATGTCATAGAAAA
DNA 2: TTTTCTATGACATTTGTCATAATTAT
For B5, the Kd with AcrIIA15 full-length [8] came out at 7.49 ± 0.6 nM. Also, the binding result in data set [10] was “binds”.
